Assay results as given in the Immune Epitope Database (IEDB).

Legend:
HLA-A*02:11 = test: IEDB peptide-MHC binding, purified MHC/direct/fluorescence; filed as Kd, often an IC50 or EC50 that approximates it; ≥ and ≤ were set here for values at or beyond the usual limits of such assays; conditions: source organism: Kurkino virus
HLA-A*02:01 [1] = test: as above; conditions: source organism: Orthohantavirus dobravaense
HLA-A*02:19 = test: as above; conditions: source organism: Kurkino virus
HLA-A*02:12 = test: as above; conditions: source organism: Kurkino virus
HLA-A*69:01 = test: as above
HLA-B*15:42 = test: IEDB peptide-MHC binding, purified MHC/competitive/fluorescence; filed as Kd, often an IC50 or EC50 that approximates it; ≥ and ≤ were set here for values at or beyond the usual limits of such assays; conditions: source organism: Kurkino virus
HLA-A*32:15 = test: as above; conditions: source organism: Kurkino virus
HLA-B*40:13 = test: as above; conditions: source organism: Kurkino virus
HLA-A*03:19 = test: as above; conditions: source organism: Kurkino virus
HLA-B*83:01 = test: as above; conditions: source organism: Kurkino virus
HLA-B*45:06 = test: as above; conditions: source organism: Kurkino virus
HLA-A*32:07 = test: as above; conditions: source organism: Kurkino virus
HLA-B*27:20 = test: as above; conditions: source organism: Kurkino virus
HLA-A*32:01 = test: IEDB peptide-MHC binding, purified MHC/competitive/radioactivity; filed as Kd, often an IC50 or EC50 that approximates it; ≥ and ≤ were set here for values at or beyond the usual limits of such assays; conditions: source organism: Vaccinia virus WR
HLA-B*15:03 = test: as above; conditions: source organism: Vaccinia virus WR
HLA-A*01:01 = test: IEDB peptide-MHC binding, purified MHC/direct/fluorescence; filed as Kd, often an IC50 or EC50 that approximates it; ≥ and ≤ were set here for values at or beyond the usual limits of such assays; conditions: source organism: Camelpox virus CMS
HLA-B*15:01 = test: as above; conditions: source organism: Camelpox virus CMS
HLA-B*46:01 = test: as above; conditions: source organism: Camelpox virus CMS
HLA-B*58:01 = test: as above; conditions: source organism: Camelpox virus CMS
HLA-B*27:05 = test: as above; conditions: source organism: Camelpox virus CMS
HLA-B*07:02 = test: as above; conditions: source organism: Camelpox virus CMS
HLA-B*48:01 = test: as above; conditions: source organism: Camelpox virus CMS
HLA-B*57:01 = test: as above; conditions: source organism: Camelpox virus CMS
HLA-A*26:01 = test: as above; conditions: source organism: Variola virus
HLA-A*31:01 = test: as above; conditions: source organism: Camelpox virus CMS
HLA-B*39:01 = test: IEDB peptide-MHC binding, purified MHC/competitive/fluorescence; filed as Kd, often an IC50 or EC50 that approximates it; ≥ and ≤ were set here for values at or beyond the usual limits of such assays; conditions: source organism: Vaccinia virus Tian Tan
HLA-A*68:02 = test: as above; conditions: source organism: Vaccinia virus Tian Tan
HLA-B*15:09 = test: as above; conditions: source organism: Vaccinia virus Tian Tan
HLA-A*02:01 [2] = test: as above; conditions: source organism: Vaccinia virus Tian Tan
HLA-B*15:17 = test: as above; conditions: source organism: Vaccinia virus Tian Tan
HLA-A*11:01 = test: as above; conditions: source organism: Vaccinia virus Tian Tan
HLA-A*26:02 = test: as above; conditions: source organism: Vaccinia virus Tian Tan
HLA-B*35:01 = test: as above; conditions: source organism: Vaccinia virus Tian Tan

Sequence: SLYSGFPSL
- Kd (HLA-A*02:11): ≤ 1 nM
- Kd (HLA-A*02:01 [1]): ≤ 1 nM
- Kd (HLA-A*02:19): 42 nM
- Kd (HLA-A*02:12): ≤ 1 nM
- Kd (HLA-A*69:01; source organism: Orthohantavirus dobravaense): ≤ 1 nM
- Kd (HLA-B*15:42): ≥ 5000 nM
- Kd (HLA-A*32:15): 30.5 nM
- Kd (HLA-B*40:13): 160 nM
- Kd (HLA-A*03:19): 26.1 nM
- Kd (HLA-B*83:01): ≥ 5000 nM
- Kd (HLA-B*45:06): ≥ 5000 nM
- Kd (HLA-A*32:07): 2.5 nM
- Kd (HLA-B*27:20): 26.5 nM

Sequence: WQFAIHYSF
- Kd (HLA-A*32:01): 2.75 nM
- Kd (HLA-B*15:03): 4.47 nM
- Kd (HLA-A*01:01): ≥ 20000 nM
- Kd (HLA-B*15:01): 130 nM
- Kd (HLA-B*46:01): ≥ 20000 nM
- Kd (HLA-B*58:01): ≥ 20000 nM
- Kd (HLA-B*27:05): 277 nM
- Kd (HLA-B*07:02): ≥ 20000 nM
- Kd (HLA-B*48:01): 160 nM
- Kd (HLA-B*57:01): ≥ 20000 nM
- Kd (HLA-A*26:01): ≥ 20000 nM
- Kd (HLA-A*31:01): ≥ 20000 nM
- Kd (HLA-A*69:01; source organism: Camelpox virus CMS): ≥ 20000 nM
- Kd (HLA-B*39:01): 604 nM
- Kd (HLA-A*68:02): ≥ 20000 nM
- Kd (HLA-B*15:09): ≥ 20000 nM
- Kd (HLA-A*02:01 [2]): ≥ 20000 nM
- Kd (HLA-B*15:17): 4670 nM
- Kd (HLA-A*11:01): ≥ 20000 nM
- Kd (HLA-A*26:02): 833 nM
- Kd (HLA-B*35:01): 922 nM
